To fix the notation:
T1: human calcitonin receptor (human, UniProt P30988 25-474)
T1 construct: whole, on cells; also called hCTR; hCT
T1 sequence (looked up): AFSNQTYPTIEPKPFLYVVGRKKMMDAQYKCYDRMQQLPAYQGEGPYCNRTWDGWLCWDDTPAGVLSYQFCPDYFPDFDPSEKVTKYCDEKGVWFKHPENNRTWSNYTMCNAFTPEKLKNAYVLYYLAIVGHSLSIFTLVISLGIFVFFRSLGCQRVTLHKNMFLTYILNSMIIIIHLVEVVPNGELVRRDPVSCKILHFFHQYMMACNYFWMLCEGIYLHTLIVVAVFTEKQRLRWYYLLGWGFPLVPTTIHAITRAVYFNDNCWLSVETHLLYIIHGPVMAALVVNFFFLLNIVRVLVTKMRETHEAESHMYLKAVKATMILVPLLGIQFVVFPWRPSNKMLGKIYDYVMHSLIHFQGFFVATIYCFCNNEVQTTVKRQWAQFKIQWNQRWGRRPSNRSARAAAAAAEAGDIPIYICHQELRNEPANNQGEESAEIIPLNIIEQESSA

B1: N^ε1-[2-[2-[2-[[2-[2-[2-[[(4S)-4-carboxy-4-(19-carboxynonadecanoylamino)butanoyl]amino]ethoxy]ethoxy]acetyl]amino]ethoxy]ethoxy]acetyl]-[Arg17,Pro21,Pro27,Glu35 … (peptide)
peptide: K([AEEA-AEEA-γGlu-C20 diacid])CNTATCATQRLANFLRHSSPNFGAIPSSTNVGSETY-NH2
modifications: disulfide 2-7; N-terminus assumed
SMILES: CC[C@H](C)[C@H](NC(=O)[C@H](C)NC(=O)CNC(=O)[C@H](Cc1ccccc1)NC(=O)[C@H](CC(N)=O)NC(=O)[C@@H]1CCCN1C(=O)[C@H](CO)NC(=O)[C@H](CO)NC(=O)[C@H](Cc1c[nH]cn1)NC(=O)[C@H](CCCNC(=N)N)NC(=O)[C@H](CC(C)C)NC(=O)[C@H](Cc1ccccc1)NC(=O)[C@H](CC(N)=O)NC(=O)[C@H](C)NC(=O)[C@H](CC(C)C)NC(=O)[C@H](CCCNC(=N)N)NC(=O)[C@H](CCC(N)=O)NC(=O)[C@@H](NC(=O)[C@H](C)NC(=O)[C@@H]1CSSC[C@H](NC(=O)[C@@H](N)CCCCNC(=O)COCCOCCNC(=O)COCCOCCNC(=O)CC[C@H](NC(=O)CCCCCCCCCCCCCCCCCCC(=O)O)C(=O)O)C(=O)N[C@@H](CC(N)=O)C(=O)N[C@@H]([C@@H](C)O)C(=O)N[C@@H](C)C(=O)N[C@@H]([C@@H](C)O)C(=O)N1)[C@@H](C)O)C(=O)N1CCC[C@H]1C(=O)N[C@@H](CO)C(=O)N[C@@H](CO)C(=O)N[C@H](C(=O)N[C@@H](CC(N)=O)C(=O)N[C@H](C(=O)NCC(=O)N[C@@H](CO)C(=O)N[C@@H](CCC(=O)O)C(=O)N[C@H](C(=O)N[C@@H](Cc1ccc(O)cc1)C(N)=O)[C@@H](C)O)C(C)C)[C@@H](C)O
notes: also called compound 25
B2: N^ε1-[2-[2-[2-[[(4S)-4-carboxy-4-(19-carboxynonadecanoylamino)butanoyl]amino]ethoxy]ethoxy]acetyl]-[Arg17,Pro21,Pro27,Glu35]-h-amylin (peptide)
peptide: K([AEEA-γGlu-C20 diacid])CNTATCATQRLANFLRHSSPNFGAIPSSTNVGSETY-NH2
modifications: disulfide 2-7; N-terminus assumed
SMILES: CC[C@H](C)[C@H](NC(=O)[C@H](C)NC(=O)CNC(=O)[C@H](Cc1ccccc1)NC(=O)[C@H](CC(N)=O)NC(=O)[C@@H]1CCCN1C(=O)[C@H](CO)NC(=O)[C@H](CO)NC(=O)[C@H](Cc1c[nH]cn1)NC(=O)[C@H](CCCNC(=N)N)NC(=O)[C@H](CC(C)C)NC(=O)[C@H](Cc1ccccc1)NC(=O)[C@H](CC(N)=O)NC(=O)[C@H](C)NC(=O)[C@H](CC(C)C)NC(=O)[C@H](CCCNC(=N)N)NC(=O)[C@H](CCC(N)=O)NC(=O)[C@@H](NC(=O)[C@H](C)NC(=O)[C@@H]1CSSC[C@H](NC(=O)[C@@H](N)CCCCNC(=O)COCCOCCNC(=O)CC[C@H](NC(=O)CCCCCCCCCCCCCCCCCCC(=O)O)C(=O)O)C(=O)N[C@@H](CC(N)=O)C(=O)N[C@@H]([C@@H](C)O)C(=O)N[C@@H](C)C(=O)N[C@@H]([C@@H](C)O)C(=O)N1)[C@@H](C)O)C(=O)N1CCC[C@H]1C(=O)N[C@@H](CO)C(=O)N[C@@H](CO)C(=O)N[C@H](C(=O)N[C@@H](CC(N)=O)C(=O)N[C@H](C(=O)NCC(=O)N[C@@H](CO)C(=O)N[C@@H](CCC(=O)O)C(=O)N[C@H](C(=O)N[C@@H](Cc1ccc(O)cc1)C(N)=O)[C@@H](C)O)C(C)C)[C@@H](C)O
notes: also called compound 26
B3: N^ε1-[2-[2-[2-[[(4S)-4-carboxy-4-(19-carboxynonadecanoylamino)butanoyl]amino]ethoxy]ethoxy]acetyl]-[Arg17,Pro21,Pro27,Pro31]-h-amylin (peptide)
peptide: K([AEEA-γGlu-C20 diacid])CNTATCATQRLANFLRHSSPNFGAIPSSTPVGSNTY-NH2
modifications: disulfide 2-7; N-terminus assumed
SMILES: CC[C@H](C)[C@H](NC(=O)[C@H](C)NC(=O)CNC(=O)[C@H](Cc1ccccc1)NC(=O)[C@H](CC(N)=O)NC(=O)[C@@H]1CCCN1C(=O)[C@H](CO)NC(=O)[C@H](CO)NC(=O)[C@H](Cc1c[nH]cn1)NC(=O)[C@H](CCCNC(=N)N)NC(=O)[C@H](CC(C)C)NC(=O)[C@H](Cc1ccccc1)NC(=O)[C@H](CC(N)=O)NC(=O)[C@H](C)NC(=O)[C@H](CC(C)C)NC(=O)[C@H](CCCNC(=N)N)NC(=O)[C@H](CCC(N)=O)NC(=O)[C@@H](NC(=O)[C@H](C)NC(=O)[C@@H]1CSSC[C@H](NC(=O)[C@@H](N)CCCCNC(=O)COCCOCCNC(=O)CC[C@H](NC(=O)CCCCCCCCCCCCCCCCCCC(=O)O)C(=O)O)C(=O)N[C@@H](CC(N)=O)C(=O)N[C@@H]([C@@H](C)O)C(=O)N[C@@H](C)C(=O)N[C@@H]([C@@H](C)O)C(=O)N1)[C@@H](C)O)C(=O)N1CCC[C@H]1C(=O)N[C@@H](CO)C(=O)N[C@@H](CO)C(=O)N[C@H](C(=O)N1CCC[C@H]1C(=O)N[C@H](C(=O)NCC(=O)N[C@@H](CO)C(=O)N[C@@H](CC(N)=O)C(=O)N[C@H](C(=O)N[C@@H](Cc1ccc(O)cc1)C(N)=O)[C@@H](C)O)C(C)C)[C@@H](C)O
notes: also called compound 49
B4: N^ε1-[2-[2-[2-[[(4S)-4-carboxy-4-(19-carboxynonadecanoylamino)butanoyl]amino]ethoxy]ethoxy]acetyl]-[Arg17,Pro21,Pro27]-h-amylin (peptide)
peptide: K([AEEA-γGlu-C20 diacid])CNTATCATQRLANFLRHSSPNFGAIPSSTNVGSNTY-NH2
modifications: disulfide 2-7; N-terminus assumed
SMILES: CC[C@H](C)[C@H](NC(=O)[C@H](C)NC(=O)CNC(=O)[C@H](Cc1ccccc1)NC(=O)[C@H](CC(N)=O)NC(=O)[C@@H]1CCCN1C(=O)[C@H](CO)NC(=O)[C@H](CO)NC(=O)[C@H](Cc1c[nH]cn1)NC(=O)[C@H](CCCNC(=N)N)NC(=O)[C@H](CC(C)C)NC(=O)[C@H](Cc1ccccc1)NC(=O)[C@H](CC(N)=O)NC(=O)[C@H](C)NC(=O)[C@H](CC(C)C)NC(=O)[C@H](CCCNC(=N)N)NC(=O)[C@H](CCC(N)=O)NC(=O)[C@@H](NC(=O)[C@H](C)NC(=O)[C@@H]1CSSC[C@H](NC(=O)[C@@H](N)CCCCNC(=O)COCCOCCNC(=O)CC[C@H](NC(=O)CCCCCCCCCCCCCCCCCCC(=O)O)C(=O)O)C(=O)N[C@@H](CC(N)=O)C(=O)N[C@@H]([C@@H](C)O)C(=O)N[C@@H](C)C(=O)N[C@@H]([C@@H](C)O)C(=O)N1)[C@@H](C)O)C(=O)N1CCC[C@H]1C(=O)N[C@@H](CO)C(=O)N[C@@H](CO)C(=O)N[C@H](C(=O)N[C@@H](CC(N)=O)C(=O)N[C@H](C(=O)NCC(=O)N[C@@H](CO)C(=O)N[C@@H](CC(N)=O)C(=O)N[C@H](C(=O)N[C@@H](Cc1ccc(O)cc1)C(N)=O)[C@@H](C)O)C(C)C)[C@@H](C)O
notes: also called compound 41
B5: N^ε1-[(4S)-4-carboxy-4-(19-carboxynonadecanoylamino)butanoyl]-[Arg17,Pro21,Pro27,Glu35]-h-amylin (peptide)
peptide: K([γGlu-C20 diacid])CNTATCATQRLANFLRHSSPNFGAIPSSTNVGSETY-NH2
modifications: disulfide 2-7; N-terminus assumed
SMILES: CC[C@H](C)[C@H](NC(=O)[C@H](C)NC(=O)CNC(=O)[C@H](Cc1ccccc1)NC(=O)[C@H](CC(N)=O)NC(=O)[C@@H]1CCCN1C(=O)[C@H](CO)NC(=O)[C@H](CO)NC(=O)[C@H](Cc1c[nH]cn1)NC(=O)[C@H](CCCNC(=N)N)NC(=O)[C@H](CC(C)C)NC(=O)[C@H](Cc1ccccc1)NC(=O)[C@H](CC(N)=O)NC(=O)[C@H](C)NC(=O)[C@H](CC(C)C)NC(=O)[C@H](CCCNC(=N)N)NC(=O)[C@H](CCC(N)=O)NC(=O)[C@@H](NC(=O)[C@H](C)NC(=O)[C@@H]1CSSC[C@H](NC(=O)[C@@H](N)CCCCNC(=O)CC[C@H](NC(=O)CCCCCCCCCCCCCCCCCCC(=O)O)C(=O)O)C(=O)N[C@@H](CC(N)=O)C(=O)N[C@@H]([C@@H](C)O)C(=O)N[C@@H](C)C(=O)N[C@@H]([C@@H](C)O)C(=O)N1)[C@@H](C)O)C(=O)N1CCC[C@H]1C(=O)N[C@@H](CO)C(=O)N[C@@H](CO)C(=O)N[C@H](C(=O)N[C@@H](CC(N)=O)C(=O)N[C@H](C(=O)NCC(=O)N[C@@H](CO)C(=O)N[C@@H](CCC(=O)O)C(=O)N[C@H](C(=O)N[C@@H](Cc1ccc(O)cc1)C(N)=O)[C@@H](C)O)C(C)C)[C@@H](C)O
notes: also called compound 27
B6: N^ε1-[(4S)-4-carboxy-4-(19-carboxynonadecanoylamino)butanoyl]-[Arg17,Pro21,Pro27,Lys35]-h-amylin (peptide)
peptide: K([γGlu-C20 diacid])CNTATCATQRLANFLRHSSPNFGAIPSSTNVGSKTY-NH2
modifications: disulfide 2-7; N-terminus assumed
SMILES: CC[C@H](C)[C@H](NC(=O)[C@H](C)NC(=O)CNC(=O)[C@H](Cc1ccccc1)NC(=O)[C@H](CC(N)=O)NC(=O)[C@@H]1CCCN1C(=O)[C@H](CO)NC(=O)[C@H](CO)NC(=O)[C@H](Cc1c[nH]cn1)NC(=O)[C@H](CCCNC(=N)N)NC(=O)[C@H](CC(C)C)NC(=O)[C@H](Cc1ccccc1)NC(=O)[C@H](CC(N)=O)NC(=O)[C@H](C)NC(=O)[C@H](CC(C)C)NC(=O)[C@H](CCCNC(=N)N)NC(=O)[C@H](CCC(N)=O)NC(=O)[C@@H](NC(=O)[C@H](C)NC(=O)[C@@H]1CSSC[C@H](NC(=O)[C@@H](N)CCCCNC(=O)CC[C@H](NC(=O)CCCCCCCCCCCCCCCCCCC(=O)O)C(=O)O)C(=O)N[C@@H](CC(N)=O)C(=O)N[C@@H]([C@@H](C)O)C(=O)N[C@@H](C)C(=O)N[C@@H]([C@@H](C)O)C(=O)N1)[C@@H](C)O)C(=O)N1CCC[C@H]1C(=O)N[C@@H](CO)C(=O)N[C@@H](CO)C(=O)N[C@H](C(=O)N[C@@H](CC(N)=O)C(=O)N[C@H](C(=O)NCC(=O)N[C@@H](CO)C(=O)N[C@@H](CCCCN)C(=O)N[C@H](C(=O)N[C@@H](Cc1ccc(O)cc1)C(N)=O)[C@@H](C)O)C(C)C)[C@@H](C)O
notes: also called compound 35

The values below come from patent US20140087995A1 (published 2014).

Numbered stars: 1 amine (or outer) side, 2 acyl side, 3 side chain; on linkers, the order of the positions; unused ones are H or OH. Bridge positions count the residues as written; N and C are the ends. Side chains are listed from the residue outwards. Ends that are not written are not given here. * marks the point of attachment. C20 diacid = O=C(O)CCCCCCCCCCCCCCCCCCC(=O)*; γGlu = O=C(O)[C@H](CCC(=O)[*:2])N[*:1]; AEEA = NCCOCCOCC(=O)O

The target of one test is T1, human calcitonin receptor. Description: ratio of IC50 at hCTR to IC50 at the human amylin receptor (reference). Put shortly: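 Competition binding by SPA with cell membranes (35 ng/μL) and SPA beads in 50 mM Hepes pH 7.4 with 1 mM CaCl2, 5 mM MgCl2, 0.1% OA and 0.02% Tween20. Incubated 120 min at 25 °C with shaking, then counted.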
Take B1: the “Ratio hCT/hAmylin binding” value worked out at 56.5.

On to B2, for which the “Ratio hCT/hAmylin binding” value is 47.5.

Regarding B3, the “Ratio hCT/hAmylin binding” value was determined as 10.8.

In the case of B4, the “Ratio hCT/hAmylin binding” value worked out at 49.9.

Turning to B5, the “Ratio hCT/hAmylin binding” value was found to be 41.3.

Take B6: the “Ratio hCT/hAmylin binding” value was determined as 50.3.

Another test has as its target T1, human calcitonin receptor. Description: SPA competition binding, membranes with human calcitonin receptor, displacement of 125I-calcitonin (Assay VII). Put shortly:
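BHK hCTR membranes 35 ng/μL + SPA beads 0.05 mg/well; buffer 50 mM Hepes pH 7.4, 1 mM CaCl2, 5 mM MgCl₂, 0.1% OA, 0.02% Tween20. 120 min, 25° C., shaking. Scintillation count; IC50 by one-site binding competition.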
Background: In a radioligand displacement assay an active substance lowers the binding of a labelled ligand.
As for B1, the IC50 stood at 43.4 nM.

With B2, the IC50 came to 25.3 nM.

In the case of B3, the IC50 was determined as 12.9 nM.

As for B4, the IC50 turned out to be 21.3 nM.

In the case of B5, the IC50 was 34.5 nM.

In the case of B6, the IC50 was determined as 48.8 nM.

Usually IC50 stands for the point on the concentration scale where inhibition reaches its midpoint.
